In the domain aggregation screens of Martell et al. (2025):

experiment: soluble fraction after stress (log2 fold change); higher = more stays soluble; pooled small domains, quantitative proteomics; conditions: stress: 75 degC
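Further: 20 min heating vs room temperature control held 20 min.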

| Sequence | soluble fraction (log2) |
| --- | --- |
| HMGLDQNTLDRVDDINDTLATGIEIGPETRGTIEELNETLANGLKAGFDEETLARVDELLRVVEDGLK | 0.0586 |
| HMGLGQRIKARREALGLSQARLGEAVGVSLQAVSNWERDEYLPDTARLPLIARALGLTPGQLME | -0.182 |
| HMGLKDTEVYMPDVRGLIEEEAQTKLKASFLTMKVSYTSSDEVKKGYVISQAPSADSVVLKGASVTVIVS | -2.56 |
| HMGLLVPELTAEENVSLAAMIAGVPRQQARSISADLLNRLGLGQMLDRRMGEMSGGQAQRVAIAPIYGKF | -0.408 |
| HMGLNVSYRMDGENVVETIIFSGATMIRTVTPTGTMTIKTIENGSTSTAKVNADYSVYKKIYEAQY | -2.69 |
| HMGLPLETVVTHATKLEIVRDGRVSGSIGLSAGVKVDVIALEGDNLQVRYRSLSGRVPVAHTGLAALA | -1.58 |
| HMGLPPIATGVNDNMSFSQAFAAARAEVGAGGAFEWHGRVYGTYYKNEWDGMSAQERHDFEIAAIRGS | -0.0369 |
| HMGLSIPLMGAKASDIEISTLNDEVQRKLKIIVKEQGHENLQRVVPLPSEAREIQAHFINGRLHLR | 0.0158 |
| HMGLYPYSGTPADNQEANERRIFDIYSTHLERIFSDFSGATLRTKRLVLRLMQELVHSDPVRMAGILDEL | 0.0962 |
| HMGMAQELMESRLTAVFTSGKDQLAVLQRKDGSTLKLGADSKPWRIESFDGRKAVFVSADQQRVERLL | -0.342 |
| HMGMGIGQIIKEKRTALKMTQNELAERLGVSQQSVTGWENNAAVPRESAVRGMMDIFGLSRNELFGEP | 0.389 |
| HMGMMTLGQRIAQYRKAMGISQEELGGRLGVSRQAVSKWETDAAAPDMENLLALAREFGVSVAELTETP | -0.187 |
| HMGMTRPLFVTDPGLVRIGLVSPIFEKLGSGKLSPQLFDQVKEDPPEQTVFDGVEFARETGIDGVIGFG | 0.00642 |
| HMGMVDKSMYSRYDVGDLVKVLRGPLEGSEGHITEINTDTGTVKVETVFFGRSTVVEVDFSEIDK | -1.37 |
| HMGNAQELQKKLEGLKGISGIEKLESDHYAEKYLVRITQPVDHKNPAAGTFTQRVIVAHVGFDRPTILVT | 0.51 |
| HMGNHRNMSAEEEAAILAPFKARAEAGELVEISEIAKAYQSAVDHPISRGQIYFVLHRHGWRKV | -1.2 |
| HMGNIALAIARFREMIAEDPNLQPVRLHLAMALMADHQDEAARGQLEKLRSDQLPDDIRKIVDDALAALR | -1.46 |
| HMGNIIITPNPASDFIKIISNSPIIKFGFYDIYGNTINKKFNDNSINISDLPVGMYLINLNERYFKLLK | -0.259 |
| HMGNIITQEAAVKLAQDRVPNATLVKIEYDFDDGRPVYEGELREGRWEYEFEIDAATGEFLKWEKD | 0.0823 |
| HMGNKWKPIILYLLSNGSMRFGMLNALIPTISKKVLTNQLKELENDGLLLRQSFAEIPPRVEYSLTEKA | -2.31 |
| HMGNLASGAYEQIKRRILSLEYLPGSILQERGLAEELGISRTPVREAIHRLSQEGWLKINSRKNIRVR | -2.32 |
| HMGNLASRVAEQLLDKMRGDSLVPGTRLPSEIAMAKHFGVSRTVMREAIARLKADGLLETRRGSGAFVLAT | -0.973 |
| HMGNLEENFRLKAGTEDGAWEFIRYHLGKLPVVNESNGTAIVNAERQAFLLFDRMVAFHIQRGVMVPLSAP | -0.0214 |
| HMGNLVDGINKKLTHVRDSLPEGYTLDEFKSAFQQQYPAAYDAYEGDKGKQFDKWLGNVIQSLPKK | 0.0554 |
| HMGNNSIDIKDVIYNLVEISQLQAFDIVKHFKTWENLVNKPDELDTVIDGDSDIVDRIKYKIKSLS | 0.344 |
| HMGNQALSSVLSDIAGIGPVKTKELLRVYPDLDSLRQAPVEEVAKVKGIGRQLAQKIHDHFSSR | -0.0292 |

| Sequence | soluble fraction (log2) |
| --- | --- |
| HMGNRWENLISNKMIDDVDEELLRKYIAQAHDAGRIAISYTDRKTVLNQLELTDGDRLLNAGKVLFSD | -0.392 |
| HMGNTTEVLVATQDVKANTKIKESMFTTERVDTASLPDNYLSADSAKDVVGYYTYIGFTKGSVISKSNIAT | 0.625 |
| HMGNVRSWKGWTSAGGTRVQMRQGDSINSMARRYGVPIQAIVAVNGIDDPAKVQPGQSVIIPTYVY | -0.29 |
| HMGNWEQQLRSWADGELATGKQDILTTAVPAFERALIETALSHTNGRKRDAAELLGWGRNTLTRKLKELGM | -0.401 |
| HMGNYEEAILAFEAAIKIDPKNADAYRKLAEAYEKTGDEDAALRTLETGAEATGDRELADLAEKKRQELDA | -0.0773 |
| HMGPASTGAHQLGLKPGDEVTHRAWGEGVVTSTTGEGDRAEAVVDFDAVGEKRLLLAWAPLER | 0.0111 |
| HMGPDTVDRTRRFKWVDNEVVVNFGKNAGRTLRDLAENDPGFLRWIVRSDFSDEVRTIANDALMGKFPTRK | -0.283 |
| HMGPEAFPVPYVVDIELDRAIYVIEQSGFIVGQKLEANDNNVPRGFVISQNPPAGTKLGPESIVDLVVSS | -1.16 |
| HMGPLDIAQLKSDFLGGDAQLARRAWDQLATKAGDEGRDFLISSLGSSDPQIRNRVALGIHES | 0.069 |
| HMGPLTMGQRIVRLRTQAGLSQDALAEQLGVSRQSVSKWETDGSVPDLDRLVKLSKVFGVTLDELVKG | -0.202 |
| HMGPPAVGAKLQVLRQARKLSLDELSRRAGVSKSMLSQVERNLANPTVAVLWRLATALGVGLADFLSP | -3.02 |
| HMGPRVSAGPGRHRVQPGDTLDDIAARYRVSSRDLMLVNGLRNANHVEAGQTLKLPSNAVIA | 0.15 |
| HMGPSLIRIASNPVAEVFIDGTRVGTTPFEMPADGTLKTVRLTAKDHDDLVVPLRSMKSMEIMLTLRRI | -2.54 |
| HMGPTLTDEEEVVLNLLEKNHPVLLSELKENAGLSNKKWDKAIKGLSAHKLAKVTKTDDGLFVHLS | 0.615 |
| HMGPTPTSAQLTEAKRLRTKLDDLNPELAERLWSEHREPYTETQYQTLIEKLAAEVQSAEGEIGR | 0.222 |
| HMGPVRRDLEINGRMVPLTIREHARATRITLRIEPGGQALRLTIPPGLPTREVDSFLTRHHGWLMTKLAHI | -2.47 |
| HMGPWTETAAKGDAVSKRMLITWLQENADAEFLAAQKLTGQATSVAKRVTKDQLVELYLSVTTAA | -1.42 |
| HMGQAAHYEGVKGDGESDTDVISRVLTAAGAEAQKDDIFVVKELIAGGKYSYTAYVYDGSVWAAM | -0.529 |
| HMGQAEEVRYSTFLDEVRNGRIEQVVLQGEHIIGTRKDKTVFSVFNPETDYTALIGTLSKSGVTIEGRP | 0.283 |
| HMGQARQSAIRELGNDPTSGKKITVRSGRYGPYVTDGEVNASLRKGDDPQTIDLDRAIELLAARREKLG | -0.148 |
| HMGQDGFIGLEAAKKLVLQKLGLTSAEFIKAELDAEDRKYELELIVDGIEYDFDIDAYSGAFLKQEQETV | -0.519 |
| HMGQEEKDIFLKLINISGIGPKLALNILSGIEASELEEAVRNTNVTRLSMVPGIGQKTALRIIMELSDKLE | -0.298 |
| HMGQELTMPDLKSMSRSNAEEKLKKMGLKLGAVFEENAKEPAGTVINQDPRSGSKITKGQTVDITVSLGEK | 0.265 |
| HMGQERAVPDVKGQSFDMAQGNISRAGLKAVVTDSVYDSYARPGTVVEQSPIPLAKIKRGGTVYLTLVA | -0.118 |
| HMGQGSAFVYYEVLPKQTEYSLTRKLGLGYADLLSLNPQLARGLQAGMVLKIPRDKAGNLEVKNDLILE | -0.643 |
| HMGQISLSVNAIPEKAEVILDGNSIGNTPIRKNTITPGSHMFEIEKKGYAPISYDIYVNPSKAINLDFFM | -0.974 |

| Sequence | soluble fraction (log2) |
| --- | --- |
| HMGQKDYKTRLQEYFAKQGLKVNYEDTSHGPDHNKNFSTDVFLDGKIIGSGIGKSKKSSQQSAAKDALNIL | 0.473 |
| HMGQLIGKEEAKQIALSRAGVAEGDISRYESELDTDDGKTKYEISFHVGRVEYDIEINAVTGAVEKFEMDN | 0.587 |
| HMGQTDTIIKTTTDLYYEMSTMSDDDKLVVAQTLRDVWMAVGRWSGKLSKKQREKVAEVKRVLGE | -0.866 |
| HMGQVAKPPLKELGADPVTGKPMVLKDGRFGPYVTDGEYNASLRKDDDIETIGVERAAELLQIRREKGP | -0.252 |
| HMGQVGIPFSDFLAEVENGQVREVVIKGNDISGTFNDNRGFSTYAPNDPNLVEKLTKRGVVINAQPTE | 0.077 |
| HMGQVSEAGELEVAADRVIAANPEAVTKYKSGNENILQFLVGQMMKETKGAANPQVAAEILRKKIV | 0.065 |
| HMGRELDLNQRVYDFIHDIADEVRTDEGTFSANQMMERFLFPGDLQSVPIGRLSGGERRRLYLLSVLMVKI | -0.0184 |
| HMGRFPSLTPVVIDALTAQYREHPGWTVQLHVDNLRVVLAANQTPLPSYPTIRRYLLAQGMRRQTRP | -0.396 |
| HMGRLNMRRIRDVLRLKFGQGLSERQVAASLGLSKTSVGTYLHRARQAGLTWPLPQGLDDDGLELLLFP | -1.69 |
| HMGRMTRKDRALATDLYGRIVGNVDDFHEGRIDYETFSERQRGLWTTLDAAGPEVKRAVLADIRERL | -0.563 |
| HMGRWQPSTSAKQHGESALLLERLLHLERLTVSEAFHVLTINHRLNLSLPEYRSLLAVVQLPK | -1.8 |
| HMGRYDWIEQIDDPVLAERLKHLTEDDLELLTRYVFEDATQKELASQYGIGQQSVSKRLKKLKSFLTK | -0.355 |
| HMGSATAPDLKGLTYEQAQTKAEDAGYNIEKGEDVYDNDVEKGKVASQDPEAGAEAKEGSVITVNISK | -0.0215 |
| HMGSFAADVGRMVRLGRAKRGISRRKLAADSGISERYLAQIEGGQGNPSVNVLKAIADAISVPVFELLPH | -1.74 |
| HMGSFDDAPDQLRQSILQLLAEGPLPPSAITERLNISREDATEALQQLLDEQRIFAVNGMLQLQPG | -0.109 |
| HMGSFTDKQIKQAFGVLNDPRFKQGNYDGAVAVINKIAPGLADHPSVANALKRANEATQDIAQQTQA | 0.0868 |
| HMGSGQIRYITENTVRVVYGTSKENEFVFQDGKPYPKDTPYHIHYTRNLEEYFMSGVEHDKNSKIILKVD | -0.946 |
| HMGSGVNVTVNGKRMNLPLKDDHIIFVDIFNYIDFDLSKPKGSIVLKLNGRDAGYTDPIKDGDVIDIYWQ | -0.301 |
| HMGSIDYLVGSRLRQYRRLRGYSLIEFSAMLHRSKSAISKYERGEVSIDLRTLNEMARLLDIPLSGLLL | -4.56 |
| HMGSIEASFEEDVRRYLARKSMTTTEISKKMRQKRPDMSRDQLMTLLANAIKRIKPIKKKIKGTLYLSLE | -2.07 |
| HMGSIMIIVLKENAPQQAAEKLMKEIRAKGLQIDVSKGTRKTVLGLVGDTSVIDMEHVQGYDYVDKVLRV | -1.11 |
| HMGSKDLPFSTFMSEIDKGNITSVDIRGNEIQGTFANGTKFRTYSPNYPNLVEKLNGKGVSITAGPV | 0.409 |
| HMGSKKITIYVSGEVKNPGIVTLNSDQRLASAVEKLGGVTENADMNNINLAMKLEDEMHYIIPKKGEK | -0.0389 |
| HMGSKQVSVPDVRNLDYERASQQLREAGFVVGDVLRIRDDRAPAGTVIAQSPAAPALVPENARVSLLVSSG | 0.124 |
